Measurements published in PMC3983030, “Ras GTPase-Like Protein MglA, a Controller of Bacterial Social-Motility in Myxobacteria, Has Evolved to Control Bacterial Predation by Bdellovibrio” (PLoS Genetics, 2014).

Target: T1, His6-tagged Bd2492 (Bd2492-His6) expressed in E. coli from plasmid pD2492N/3734 (Bdellovibrio bacteriovorus HD100, UniProt Q6MKB3 1-353)
T1 construct: Bd2492, 353 amino acid TPR protein of Bdellovibrio bacteriovorus HD100; The label Bd2492-His6 hints at a C-terminal tag and the plasmid name pD2492N at an N-terminal one; also called TPRBd; source: E. coli, heterologously co-expressed with MglA from plasmid pD2492N/3734
T1 sequence (looked up): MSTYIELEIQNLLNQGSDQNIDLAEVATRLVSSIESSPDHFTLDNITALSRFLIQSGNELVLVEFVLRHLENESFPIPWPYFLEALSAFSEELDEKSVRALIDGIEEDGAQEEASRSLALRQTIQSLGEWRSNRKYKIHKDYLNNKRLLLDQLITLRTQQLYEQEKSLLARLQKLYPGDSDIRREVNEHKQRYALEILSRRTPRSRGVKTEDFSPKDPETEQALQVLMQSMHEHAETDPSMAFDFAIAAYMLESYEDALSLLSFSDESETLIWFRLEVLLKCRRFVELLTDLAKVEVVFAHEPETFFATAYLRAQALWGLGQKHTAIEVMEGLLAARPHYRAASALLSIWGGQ
Assay: SEC; gel filtration and SDS-PAGE of purified MglA and Bd2492-His6; data not shown
Conditions: both partners purified

B1: MglA (Bd3734) co-expressed in E. coli from plasmid pD2492N/3734 (natural protein, Bdellovibrio bacteriovorus HD100, UniProt Q6MH29 1-197, looked up)
chain: MSFINYNAKEIHCKVVYYGPSLGGKTTNIQWVYQKTAEDQKSKLVALNTDIERTLFFDFLPLNVGDIRGFKTRFHLYTVPGQVVYDASRKLILKGLDGVIFVADSQIERMDENLESLRNLERNLEQQGYDIREIPLIMQYNKRDLPNVASLAELRSALNPYNAPEIEGCASEGRGVFESLKTVSKSIINVLKGGTTL
notes: MglA (Bd3734) of Bdellovibrio bacteriovorus HD100; No tag is named on MglA in this construct; source: E. coli, heterologously co-expressed with Bd2492-His6 from plasmid pD2492N/3734
stoichiometry N: 1
